Source: ChEMBL document CHEMBL4602687, “Dual Binding to Orthosteric and Allosteric Sites Enhances the Anticancer Activity of a TRAP1-Targeting Drug” (J Med Chem, 2020)

Columns and labels:
[1] = substrate: Nc1ncnc2c1nc(Sc1cc3c(cc1I)OCO3)n2CCCCCCCCCC[P+](c1ccccc1)(c1ccccc1)c1ccccc1; assay: (§1) Allosteric modulation of recombinant wild-type human TRAP1 ATPase activity expressed in Escherichia coli BL21 (DE3) assessed as ratio of substrate Kcat to Km at 5 uM preincubated for 0.5 hrs followed by varying levels of ATP addition and measured after 3 hrs using PiColorLock Gold reagent by colorimetric assay-based Lineweaver-Burk plot analysis (reference value: 10.3 +/- 0.54 10^-5 /s/uM)
[2] = compound: CC(C)NCCCn1c(Sc2cc3c(cc2I)OCO3)nc2c(N)ncnc21; assay: as §1, with “Competitive inhibition” for “Allosteric modulation”, “as” for “as ratio of”, “substrate” for “substrate Kcat to”, “84.42” for “10.3”, “3.84 uM)” for “0.54 10^-5 /s/uM)”
[3] = substrate: Nc1ncnc2c1nc(Sc1cc3c(cc1I)OCO3)n2CCCCCCCCCC[P+](c1ccccc1)(c1ccccc1)c1ccccc1; assay: as §1, with “as” for “as ratio of”, “substrate” for “substrate Kcat to”, “84.42” for “10.3”, “3.84 uM)” for “0.54 10^-5 /s/uM)”
[4] = compound: CC(C)NCCCn1c(Sc2cc3c(cc2I)OCO3)nc2c(N)ncnc21; assay: as §1, with “Competitive inhibition” for “Allosteric modulation”
[5] = compound: CC(C)NCCCn1c(Sc2cc3c(cc2I)OCO3)nc2c(N)ncnc21; assay: as §1, with “Competitive inhibition” for “Allosteric modulation”, “as” for “as ratio of”, “Kcat” for “Kcat to Km”, “0.87” for “10.3”, “0.01 […])” for “0.54 10^-5 /s/uM)”
[6] = substrate: Nc1ncnc2c1nc(Sc1cc3c(cc1I)OCO3)n2CCCCCCCCCC[P+](c1ccccc1)(c1ccccc1)c1ccccc1; assay: as §1, with “as” for “as ratio of”, “Kcat” for “Kcat to Km”, “0.87” for “10.3”, “0.01 […])” for “0.54 10^-5 /s/uM)”

B1: Heat shock protein 75 kDa, mitochondrial (Homo sapiens), Q12931 (protein)
chain: MARELRALLLWGRRLRPLLRAPALAAVPGGKPILCPRRTTAQLGPRRNPAWSLQAGRLFSTQTAEDKEEPLHSIISSTESVQGSTSKHEFQAETKKLLDIVARSLYSEKEVFIRELISNASDALEKLRHKLVSDGQALPEMEIHLQTNAEKGTITIQDTGIGMTQEELVSNLGTIARSGSKAFLDALQNQAEASSKIIGQFGVGFYSAFMVADRVEVYSRSAAPGSLGYQWLSDGSGVFEIAEASGVRTGTKIIIHLKSDCKEFSSEARVRDVVTKYSNFVSFPLYLNGRRMNTLQAIWMMDPKDVREWQHEEFYRYVAQAHDKPRYTLHYKTDAPLNIRSIFYVPDMKPSMFDVSRELGSSVALYSRKVLIQTKATDILPKWLRFIRGVVDSEDIPLNLSRELLQESALIRKLRDVLQQRLIKFFIDQSKKDAEKYAKFFEDYGLFMREGIVTATEQEVKEDIAKLLRYESSALPSGQLTSLSEYASRMRAGTRNIYYLCAPNRHLAEHSPYYEAMKKKDTEVLFCFEQFDELTLLHLREFDKKKLISVETDIVVDHYKEEKFEDRSPAAECLSEKETEELMAWMRNVLGSRVTNVKVTLRLDTHPAMVTVLEMGAARHFLRMQQLAKTQEERAQLLQPTLEINPRHALIKKLNQLRASEPGLAQLLVDQIYENAMIAAGLVDDPRAMVGRLNELLVKALERH
kcat/Km [1]: 4.99 ×10⁻⁵ /s/µM | Km [2]: 1050 µM | Km [3]: 506 µM | kcat/Km [4]: 0.76 ×10⁻⁵ /s/µM | kcat [5]: 0.8 ×10⁻² /s | kcat [6]: 2.51 ×10⁻² /s
